As a reminder, the Km is the substrate concentration at which the rate is half of its maximum. Broadly, the kcat is the number of substrate molecules converted per active site and unit of time at saturation.

Type in all cases: biochemical, Z. mays
Data set [1] has as its system 4-hydroxyphenylpyruvate dioxygenase (HPPD). Nature of the data set: HPPD activity coupled assay with HGD; substrate saturation kinetic parameters (kcat, KM). The method in brief: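 Coupled continuous assay: His-tagged HPPD (5 to 240 nM, E. coli-expressed, Ni-NTA-purified) with 50 nM P. aeruginosa HGD in 25 mM Hepes pH 7, 2 mM ascorbate, 10 μM FeSO4; maleylacetoacetate followed at 320 nm. KM and Vmax from Lineweaver-Burke fits over 3.33–100 μM HPP.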

The test system is the same in data set [2]. Nature of the data set: ON rate ratio: HPPD reaction rate with vs without inhibitor in the 70 to 90 second interval. Summed up: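 Time courses of HPPD reactions, 60 or 120 nM enzyme with 100 μM HPP substrate, run with and without 4 μM inhibitor (e.g. mesotrione, tembotrione). Value is the rate with inhibitor over rate without, taken over 70–90 s; higher ratio reflects slower kON.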

The test system is the same in data set [3]. Nature of the data set: OFF rate ratio: release of inhibitor from pre-formed enzyme-inhibitor complex. Summed up:
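HPPD (7.2 μM) pre-incubated 1 h at RT with inhibitor (8 μM), then diluted into 25 mM Hepes pH 7, 2 mM ascorbate, 10 μM FeSO4, 100 μM HPP, 50 nM HGD; A320 followed 12 min. Ratio = steady-state rate with inhibitor over initial rate of inhibitor-free enzyme.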

For data set [4] the test system is unchanged. Nature of the data set: Insensitivity parameter (ON × OFF) and trait fitness (ON × OFF × kcat/KM or × kcat). Also on record: key to ON × OFF / Insensitivity, mesotrione, ON × OFF / Insensitivity, tembotrione, ON × OFF / Insensitivity, topramezone, ON × OFF / Insensitivity, sulcotrione, ON × OFF / Insensitivity, isoxaflutole (DKN), ON × OFF: insensitivity = ON rate ratio × OFF rate ratio (surrogate for KD). Summed up: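 Calculated, not measured directly: ON rate ratio × OFF rate ratio gives an insensitivity parameter serving as a KD surrogate.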

The test system is the same in data set [5]. Nature of the data set: Estimate of kcat from initial rate at saturating hydroxyphenylpyruvate without inhibitor (ON rate ratio assay). Summed up:
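Reactions used 60 or 120 nM HPPD and saturating 100 μM hydroxyphenylpyruvate without inhibitor. kcat was estimated from the initial rate at the known enzyme concentration.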

[6] abbreviates: Table 5, tembotrione, fold vs maize wild type HPPD.
Where [7] appears, read: substrate saturation kinetic analysis.
Setting [8] is: Table 7, tembotrione, combinatorial variants.

B1: 342V: single substitution 342V in SEQ ID NO:2 (protein)
chain: MGPTPTATAAGAAVAAASAAEQAAFRLVGHRNFVRFNPRSDRFQTLAFHHVELWCADAASAAGRFSFALGVPLAARSDLSTGNSAHASLLLRSGSLSLLFTAPYAHGADAATAALPSFSAAAARRFAADHGLAVRAVALRVADAEDAFRASVAAGARPAFGPVDLGRGFRLAEVELYGDVVLRYVSYPDGAAGEPFLPGFEGVASPGAADYGLSRFDHIVGNVPELAPAAAYMAGFTGFHEFAEFTTEDVGTTESGLNSMALANNSENVLLPLNEPVHGTKRRSQIQTFLDHHGGPGVQHIALASDDVLRTLREMRARSAMGGFEFLPPPLSDYYDGVRRCVGDVLTEAQINECQELGVMVDRDDQGVLLQIFTKPVGDRPTFFLEIIQRIGCMEKDEKGQEYQKGGCGGFGKGNFGQLFKSIEDYEKSLEAKQAAAAATAQGS
modifications: Zea mays variant form created by artificial means.
Consider B1, for which the Km in data set [1] (Table 6) turned out to be 2.59 µM. Besides, the kcat was 0.903 s⁻¹ in data set [1] (Table 6, single substitutions in SEQ ID NO:2) and 0.677 s⁻¹ in data set [5] (Table 5, single substitutions in Round 7 variant 9070 (SEQ ID NO:2), estimate from initial rate at saturating hydroxyphenylpyruvate without inhibitor). Moreover, the “ON ratio (parameters with tembotrione)” value in data set [2] (Table 5, tembotrione) was determined as 0.78. Moreover, the “OFF ratio (parameters with tembotrione)” value in data set [3] (Table 5, tembotrione) stood at 0.13. For the same molecule, the “Insensitivity parameter, ON × OFF” value in data set [4] (DKN (diketonitrile form of isoxaflutole)) turned out to be 0.22; in data set [4] (Mesotrione, Table 6) it was 0.42; in data set [4] (Sulcotrione), 0.51; in data set [4] (Tembotrione) it was 0.17; in data set [4] (Topramezon) it was 0.23. In data set [4] (Table 5, tembotrione), the “ON × OFF × kcat, Value” is on record as 4.08. Further, in data set [4] (setting [6]), the “ON × OFF × kcat, Fold vs wt” value was 3.82. Besides, the “ON × OFF, fold vs wt” value in data set [4] (setting [6]) was determined as 19.7. Besides, the “ON × OFF (parameters with tembotrione)” value in data set [4] (Table 5, tembotrione, insensitivity parameter) is reported as 0.10.

B2: P056028-F-05 (protein)
chain: MGPTPTATAAGAAVAAASAAEQAAFRLVGHRNFVRFNPRSDRFQTLAFHHVELWCADAASAAGRFSFALGVPLAARSDLSTGNSAHASLLLRSGSLSLLFTAPYAHGADAATAALPSFSAAAARRFAADHGLAVRAVALRVADAEDAFRASVAAGARPAFGPVDLGRGFRLAEVELYGDVVLRYVSYPDGGAGEPFLPGFEGVASPGAADYGLSRFDHIVGNVPELAPAAAYMAGFTGFHEFAEFTTEDVGTTESGLNSMALANNSENVLLPLNEPVHGTKRRSQIQTFLDHHGGPGVQHIALASDDVLRTLREMRARSAMGGFEFLPPPLSDYYDGVRRCAGDVLTEAQINECQELGVMVDRDDEGVLLQIFTKPVGDRPTFFLEIIQRIGCMEKDEKGQEYQKGGCGGFGKGNFGQLFKSIEDYEKSLEAKQAAAAATAQGS
modifications: Zea mays variant form created by artificial means.
On to B2, for which, in data set [1] (setting [7]), the Km is 2.39 µM and the kcat was 0.538 s⁻¹. Moreover, the ON rate ratio in data set [2] (setting [8]) was 0.700. Also, the “Insensitivity, mesotrione, Rate ratio ON” value in data set [2] (inhibitor mesotrione) came out at 0.64. In addition, in data set [2] (inhibitor tembotrione), the “Insensitivity, tembotrione, Rate ratio ON” value is reported as 0.70. In addition, the OFF rate ratio in data set [3] (setting [8]) stood at 0.395. Besides, the “Insensitivity, mesotrione, Rate ratio OFF” value in data set [3] (inhibitor mesotrione) is recorded as 1.00. For the same molecule, the “Insensitivity, tembotrione, Rate ratio OFF” value in data set [3] (inhibitor tembotrione) is 0.39. In data set [4] (Megatable 3, shuffled variants), the “ON × OFF” value came out at 0.276 and the “ON × OFF × kcat” value amounted to 7.57. Also, in data set [4] (setting [8]), the “ON × OFF” value came out at 0.276 and the “ON × OFF × kcat” value was found to be 7.57. In data set [4] (inhibitor mesotrione), the “Insensitivity, mesotrione, ON × OFF” value worked out at 0.64 and the “Insensitivity, mesotrione, Trait Fitness” value worked out at 8.7. Besides, in data set [4] (inhibitor tembotrione), the “Insensitivity, tembotrione, ON × OFF” value was 0.28 and the “Insensitivity, tembotrione, Trait fitness” value is on record as 3.74. Further, in data set [5] (Megatable 3, shuffled variants), the turnover number (kcat) is 0.457 s⁻¹. Besides, the turnover number (kcat) in data set [5] (Table 7, combinatorial variants) was 0.457 s⁻¹.

The record behind these values is patent US11015206B2, “Compositions and methods comprising sequences having hydroxyphenylpyruvate dioxygenase (HPPD) activity” (PIONEER HI-BRED INTERNATIONAL, INC., priority 2014, dated 2021).
